Results reported in publication PMC9592583.

Biological target: proMbxA (6H-MbxA, non-acylated precursor of the RTX toxin MbxA from Moraxella bovis) (Moraxella bovis)
Assay: SEC-MALS; proMbxA species of SEC peak 1, 1.3-2.5 mg/ml, 200 ul on Superose 6 Increase 10/300 GL; 50 mM TRIS pH 7.8, 100 mM NaCl, 10 mM CaCl2

For “proMbxA (6H-MbxA, non-acylated precursor of the RTX toxin MbxA from Moraxella bovis) (natural protein)”, the stoichiometry N was 2.
